Assays:
VACV A27 protein [1] = target: T1, VACV A27 protein (vaccinia virus, UniProt P11258 1-110); experiment: lysate ELISA
T1 sequence: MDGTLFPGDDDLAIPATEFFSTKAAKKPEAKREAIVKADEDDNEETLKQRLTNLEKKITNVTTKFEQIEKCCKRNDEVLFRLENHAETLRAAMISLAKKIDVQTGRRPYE

VACV A27 protein [2] = target: T1, VACV A27 protein; experiment: purified antigen ELISA
VACV B5 protein [3] = target: T2, VACV B5 protein (vaccinia virus, UniProt Q01227 20-275); experiment: purified antigen ELISA
VACV A27 protein [4] = target: T1, VACV A27 protein; experiment: cell-based or functional assay
VACV D8 protein [5] = target: T3, VACV D8 protein (vaccinia virus, UniProt P04195 1-261); experiment: lysate ELISA
T3 sequence: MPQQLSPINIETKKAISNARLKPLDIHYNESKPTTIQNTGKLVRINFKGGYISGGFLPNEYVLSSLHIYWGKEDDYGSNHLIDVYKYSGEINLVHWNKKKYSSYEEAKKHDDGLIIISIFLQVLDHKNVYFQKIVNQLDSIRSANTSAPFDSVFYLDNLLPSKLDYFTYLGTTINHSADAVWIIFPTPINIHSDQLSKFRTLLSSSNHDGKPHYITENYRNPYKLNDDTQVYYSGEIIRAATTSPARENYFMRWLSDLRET

VACV D8 protein [6] = target: T3, VACV D8 protein; experiment: cell-based or functional assay
VACV B5 protein [7] = target: T2, VACV B5 protein; experiment: lysate ELISA
VACV A33 protein = VACV A33 protein (vaccinia virus, UniProt P68617 58-185); experiment: purified antigen ELISA
VACV B5 protein [8] = target: T2, VACV B5 protein; experiment: cell-based or functional assay

B1: VACV-303 (antibody, V domains shown)
VH: EVQLLESGGGLVQPGGSLRLSCAASGFTFSSYAMSWVRQAPGKGLEWVSAISGTGGNTYYADSVKGRFTISRDKSKNTLYLQMHSLRAEDTAVYYCATSLIWWLQSDYWGQGTLVTVSS
VL: DIQMTQSPSSLSASVGDRVTITCRASQSIASYLIWYQQKPGNAPKLLIYAASSLQSGVPSRFSGSGSGTDFTLTISSLQPEDFATYYCQQSYSTPQTFGQGTKVDIK
notes: human IgG1, anti-A27
- EC50 (VACV A27 protein [1]): 0.05 µg/mL
- EC50 (VACV A27 protein [2]): 0.02 µg/mL

B2: VACV-1 (antibody, V domains shown)
VH: EVQLVESGGGLVQPGESLKISCAASGFTFSSFSMNWVRQAPGKGLEWVSYISSSSSTIYYADSVKGRFTISRDNAKNSLYLQMNSLRDEDTAVYYCARRSVGCSGGNCYAYYYGMDVWGQGTTVTVS
VL: not shown
notes: human IgG1, anti-B5
- EC50 (VACV B5 protein [3]): 0.02 µg/mL

B3: VACV-301 (antibody, V domains shown)
VH: EVQLLESGGGLVQPGGSLRLSCAASGFSFSSYAMSWVRQAPGKGLEWVSGIGNSGDRTFYADSAKGRFTIFRDNSNNRLYLQMNSLRAADTAVYYCAKWGRFESGAFWGQGVLVTVSS
VL: SYELTQSPSVSVSPGQTARITCSGDALPEQYAYWYQQKPGQAPVLVIYKDSERPSGIPERFSGSGSGTTVTLTITGVQAEDEADYYCQSADNSGTYEVFGTGTKVTVL
notes: human IgG3, anti-A27
- PRNT Emax, VACV MV (VACV A27 protein [4]): 61%
- PRNT Emax, VACV MV+C' (VACV A27 protein [4]): 77%
- PRNT IC50, VACV MV (VACV A27 protein [4]): 0.5 µg/mL
- PRNT IC50, VACV MV+C' (VACV A27 protein [4]): 0.1 µg/mL
- EC50 (VACV A27 protein [1]): > 21 µg/mL
- EC50 (VACV A27 protein [2]): 0.03 µg/mL

B4: MPXV-30 (antibody, V domains shown)
VH: QVQLVQSGAEVKKPGSSVKVSCKVSGGTFSSLAINWVRQAPGQGLEWMGGIIPIFGKANYAQKFQGRVSIIADESTSTAYMDLSSLRFEDTAVYYCATGGNIRVHDFDIWGQGTLVIVSS
VL: not shown
notes: human IgG1, anti-D8
- EC50 (VACV D8 protein [5]): 0.004 µg/mL

B5: VACV-230 (antibody, V domains shown)
VH: QVQLVQSGAEVKKPGASVKVSCKVSGYTLTELSMHWVRQAPGKGLEWLGGFDPEDGETIYAQKFQGRVTMTEDTSTDTAYMELSSLRSEDTAVYYCARESWLRGFDYWGQGTLVTVS
VL: not shown
notes: human IgG1, anti-D8
- PRNT Emax, VACV MV+C' (VACV D8 protein [6]): 77%
- PRNT IC50, VACV MV+C' (VACV D8 protein [6]): 0.1 µg/mL
- EC50 (VACV D8 protein [5]): 0.6 µg/mL

B6: VACV-56 (antibody, V domains shown)
VH: QVQLQQWGAGLLKPSETLSLTCAVYGGSFSGYYWSWIRQPPGKGLEWIGEINHSGSTNYNPSLKSRVTISVDTSKSQFSLKLSSVTAADTAVYYCARATQGSGTYKLFFYSYGMDVWGQGTTVTVSS
VL: not shown
notes: human IgG1, anti-D8
- PRNT Emax, VACV MV+C' (VACV D8 protein [6]): 81%
- PRNT IC50, VACV MV+C' (VACV D8 protein [6]): 0.04 µg/mL
- EC50 (VACV D8 protein [5]): 0.01 µg/mL

B7: VACV-8 (antibody, V domains shown)
VH: QVQLQQWGAGLLKPSETLSLTCAGYGGSFSGYFWSWIRQPPGKGLEWIGEINHSGSTDYNPSLKSRVTISLDTSKTQFSLKLSSVTAADTAVYYCARVMTGITNYYYYYGMDVWGQGTTVTF
VL: DIQLTQSPSFLSASVGDRVTITCRASQDISSYLAWYQQKPGKAPKLLIYAASTLQSGVPSRFSGSESGTEFTLTISSLQPENFATYYCQHLNSYPRGYTFGQGTKVDIK
notes: human IgG1, anti-D8
- PRNT Emax, VACV MV+C' (VACV D8 protein [6]): 74%
- PRNT IC50, VACV MV+C' (VACV D8 protein [6]): 0.3 µg/mL
- EC50 (VACV D8 protein [5]): 0.04 µg/mL

B8: MPXV-61 (antibody, V domains shown)
V domain 1: QVQLVQSGAEVKKPGSSVKVSCKASGETFSRYAFSWVRLAPGQGLEWLGRIIPFIDIPNYAQKFQGRVTITADKSTSTAYMELSSLRSEDTAVYYCASSLPSTYYFGSGNYPWGNWLDPWGQGTLVTVSS
V domain 2: QSVVTQPPSVSAAPGQNVTISCSGSSSNIGNNYVSWYHQLPGTAPKLLIYDNDKRPSGIPDRFSGSKSGTSATLGITGLQTGDEADYYCGTWDSSLSEVVFGGGTQVTVL
notes: human IgG1, anti-D8
- EC50 (VACV D8 protein [5]): 0.007 µg/mL

B9: MPXV-12 (antibody, V domains shown)
VH: QVQLQQWGAGLLKPSETLSLTCAVYGGSFTNYYWSWIRQFPGKGLEYIGEIDHSGSANYNPSLKSRVTISLDTSKNQFSLRLSSVTAADTAVYFCARDVYGSGTYYWFDPWGQGTL
VL: DIQMTQSPTSLSASVGDRVTITCRASQRISSHLNWYQQKPGKAPKLLIYVASSLQSGVPSRFSGSGSGTDYTLTISSLQPEDFATYFCQQSYTTPYTFGQGTNLQMK
notes: human IgG3, anti-B5
- EC50 (VACV B5 protein [7]): 5.85 µg/mL
- EC50 (VACV B5 protein [3]): 0.1 µg/mL

B10: MPXV-39 (antibody, V domains shown)
VH: QVQLQQWGAGLLKPSETLSLTCAIYGGSLSGQYWSWIRQPPGRGLEWIGEIHHKGRTNYNPSLKSRVTISIDTSQRQFSLRLTSVSAADTAVYYCASGNYRLGQGTLVTF
VL: DVVLTQSPLTLPVTLGQPASISCRSSQSLVYSDGDTYLNWFQQRPGQAPRRLIYKVSKRDFGVPDRFSGSGSGTDFTLRISRVEAEDVGVYYCMQGTHWPRTFGQGTQVDIK
notes: human IgG3, anti-A33
- EC50 (VACV A33 protein): 0.07 µg/mL

B11: VACV-154 (antibody, V domains shown)
VH: EVQLLESGGGLVQPGESLRLSCAASGFTLRNYAMSWVRQTPGKGLEWVSAISGSGGSTYYADSVKGRFTISRDTSKNTLYVQMNSLRAEDTAVYYCAKIRLDSSGYSGAFDIWGQGTRVTVSS
VL: SYELTQPPSVSVSPGQTARITCSGDALPKQYASWYQQKPGQAPVLVIYKDSERPSGIPERFSGSSSGTTVTLTISGVQAEDEADYYCQSADSSGTYPVVFGGGTQLTVL
notes: human IgG1, anti-A27
- EC50 (VACV A27 protein [1]): > 0.1 µg/mL
- EC50 (VACV A27 protein [2]): 0.06 µg/mL

B12: MPXV-43 (antibody, V domains shown)
VH: QVQLVQSGAEVKKPGASVKVSCKASGYTFTKYTIHWVRQAPGQRLEWVGGIYAGYGNTRYSQKFQGRVTITRDTSASTAYMELSSLRSEDTAVYFCARDFEDFDSWTGYYSWLHWGQGTLVTVSS
VL: EIVLTQSPGTLSLSPGERATLSCRASQSVSSTYLAWYQQKPGQAPRLLIYGASSRATGIPDRFSGSGSGTDFTLTITRLEPEDFAMYFCQQYDSSPSITFGQGTRLEIK
notes: human IgG1, anti-B5
- EC50 (VACV B5 protein [7]): 0.011 µg/mL
- EC50 (VACV B5 protein [3]): 10.1 µg/mL

B13: VACV-300 (antibody, V domains shown)
V domain 1: QVQLVQSGAEVKKPGSSVKVSCKASGGTFSSYAISWVRQAPGQGLEWMGGIIPIFGTANYAQKFQGRVTITADESTGTAYMELTSLRSEDTAIYYCARASEQWLASINWFDPWGQGTLVTVSS
V domain 2: QSALTQPASVSGSPGQSITISCTGTSSDVGSYNLVSWYQQHPGKAPKLMIYEVSKRPSGVSNRFSASKSGNTASLTISGLQAEDEADYYCCSYAGSSTLVFGGGTQVTVL
notes: human IgG1, anti-A27
- EC50 (VACV A27 protein [1]): > 0.37 µg/mL
- EC50 (VACV A27 protein [2]): 0.22 µg/mL

B14: MPXV-96 (antibody, V domains shown)
VH: QVQLQQWGAGLLISSETLSLTCGVYGGSFSGYYWTWIRQPPGKGLEWIGEINYVGSTNYNPSLKSRVTMSVDTSKNHFSLSLSSVTAADTAVYYCARGLRGNSVCFDWGPGTLV
VL: ELVMTQSPATLSVSPGERASLSCRASQSVSSNLAWYQQKPGQAPRLLIYGASTRATGLPARFSGSGSGTEFTLTISSLQSEDFAIYYCQQYNNWPRTFGQGTKVDI
notes: human IgG1, anti-D8
- EC50 (VACV D8 protein [5]): 0.001 µg/mL

B15: VACV-59 (antibody, V domains shown)
VH: QVQLVQSGGGLVKPGGSLRLSCAASGFTFSDYYMSWIRQAPGKGLEWVSYISTSGSTIYYADSVKGRFTISRDNAKNSLYLQMNSLRAEDTAMYYCARDGDGSGSYTPPYYYYGLDVWGQGTTVTVSS
VL: DIQMTQSPSSLSASVGDRVTITCRASQSIRNYLNWYQQKSGKAPKLLIYAASSLQSGVPSRFSGSGSGTDFTLTISSLHPEDFATYYCQQSYSTPPLTFGGGTKVEIK
notes: human IgG2, anti-B5
- PRNT Emax, VACV EV+C' (VACV B5 protein [8]): 72%
- PRNT IC50, VACV EV+C' (VACV B5 protein [8]): 0.2 µg/mL
- EC50 (VACV B5 protein [3]): 0.14 µg/mL

B16: VACV-282 (antibody, V domains shown)
VH: EVQLVESGGGLVKPGGSLRLSCAASGFTFSSYSMNWVRQAPGKGLEWVSSISSISSYIYYADSVKGRFTISRDNAKNSLYLQMNSLRAEDTAVYYCARDRPRSRPNSGSYFWYYYGMDVW
VL: SYELTQPPSVSVAPGQTARITCGGNNIGSKSVHWYQQKPGQAPVLVVYDDSDRPSGIPERFSGSNSGNTATLTISRVEAGDEADYYCQVWDSNSDHRVSA
notes: human IgG1, anti-B5
- EC50 (VACV B5 protein [3]): 0.155 µg/mL

B17: VACV-136 (antibody, V domains shown)
V domain 1: QVTLKESGPVLVNPTETLTLTCTVSGFSLSNARMRVSWIRQPPGKALEWLAHIFSNDEKSYSTSLKSRLTISKDTSKSQVVLTMTNMDPVDTASYYCARMRGEYNSYYFDSWGQGTLVTVS
V domain 2: SYELTQPPSVSVSPGQTARITCSGDALPNQYAYWYQQKPGQAPVLVIYKDSERPSGIPERFSGSSSGTTVTLTISGVQAEDEADYYCQSADSSGTSVVFGGGTQVTV
notes: human IgG1, anti-D8
- PRNT Emax, VACV MV+C' (VACV D8 protein [6]): 84%
- PRNT IC50, VACV MV+C' (VACV D8 protein [6]): 0.4 µg/mL
- EC50 (VACV D8 protein [5]): 0.06 µg/mL

B18: VACV-302 (antibody, V domains shown)
VH: QLQLQESGPGLVKPSETLSLTCTVSGGSIISSSYYWGWIRQPPGKGLEWLGSIYYSGSTYYNPSLKSRVTISVDTSKNQFSLKVTSVTAADTAVYYCARQISKAAAGSIDYWGQGTLVTVS
VL: not shown
notes: human IgG1, anti-A27
- PRNT Emax, VACV MV (VACV A27 protein [4]): 81%
- PRNT Emax, VACV MV+C' (VACV A27 protein [4]): 53%
- PRNT IC50, VACV MV (VACV A27 protein [4]): 12.3 µg/mL
- PRNT IC50, VACV MV+C' (VACV A27 protein [4]): 0.1 µg/mL
- EC50 (VACV A27 protein [1]): 0.01 µg/mL
- EC50 (VACV A27 protein [2]): 0.08 µg/mL

Reference: patent US11667697 (VANDERBILT UNIVERSITY, dated 2023)
